Here are results for 1 substance from paper PMC10043284.

This assay concerns the target PANX2EM (residues 1-372 of human pannexin 2 with a C-terminal thermostabilized BRIL) (UniProt Q96RD6). The assay can be described thus: cryo-EM structure; purified PANX2EM (~6 mg/ml) in 20 mM Tris pH 8.0, 150 mM NaCl, 40 uM GDN, with 1 mM Fluorinated Fos-Choline 8; single-particle analysis, C7 symmetry, 3.92 Å; C1 reconstruction aligned with it.

As a reminder, the stoichiometry N is the number of molecules, sites or subunits per partner or assembly. In turn, “PANX2EM (residues 1-372 of human pannexin 2 with a C-terminal thermostabilized BRIL) (from UniProt Q96RD6-3 1-372)” gave a stoichiometry N of 7.
